What was measured:
[1] = target: murine p55 receptor (on mouse L-M cells) (murine) (UniProt P25118); experiment: cell-based or functional assay
[2] = target: TNF receptors (on L-M mouse fibroblasts); experiment: cell-based or functional assay

UniProt P25118, sequence (P25118 30-454): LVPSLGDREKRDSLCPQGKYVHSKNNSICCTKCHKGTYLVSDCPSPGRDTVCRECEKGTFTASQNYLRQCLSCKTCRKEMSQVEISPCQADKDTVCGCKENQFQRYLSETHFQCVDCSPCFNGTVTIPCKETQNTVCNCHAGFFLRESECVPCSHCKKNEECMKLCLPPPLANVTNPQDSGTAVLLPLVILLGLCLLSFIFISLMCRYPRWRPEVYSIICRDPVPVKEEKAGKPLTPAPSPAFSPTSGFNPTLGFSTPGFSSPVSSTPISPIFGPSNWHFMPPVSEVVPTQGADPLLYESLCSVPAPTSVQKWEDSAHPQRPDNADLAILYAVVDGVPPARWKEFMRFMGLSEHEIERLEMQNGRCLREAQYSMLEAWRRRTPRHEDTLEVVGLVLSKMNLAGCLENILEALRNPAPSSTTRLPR

in vitro cytolytic activity on mouse L-M cells [1] | Substance | in vitro cytotoxic activity, standard cytolytic assay with L-M cells [2]
5.09e+07 units/mg | human NGR-TNF (CNGRCG-TNF1-157), refolded (from UniProt P01375 1-233) | 
6.11e+07 units/mg | human NGR-TNF (CNGRCG-TNF1-157), non-refolded (from UniProt P01375 1-233) | 
 | murine NGR-TNF (Cys-Asn-Gly-Arg-Cys-Gly-TNF1-156) (from UniProt P06804 80-235) | 1.8e+08 units/mg
